Measured values as given in patent US20230220093A1 (published 2023).

T1: recombinant human CD40L (rhCD40L-his) (human, UniProt P29965 113-261, limits assumed)
T1 construct: The construct is purified by IMAC and named rhCD40L-his; also called rhCD40L antigen; soluble CD40L
T1 sequence (looked up): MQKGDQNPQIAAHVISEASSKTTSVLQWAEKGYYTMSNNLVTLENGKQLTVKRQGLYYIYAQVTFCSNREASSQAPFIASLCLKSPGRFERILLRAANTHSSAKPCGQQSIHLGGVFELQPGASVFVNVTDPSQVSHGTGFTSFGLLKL

T2: cellular membrane CD40L expressed on D1.1 cells (CRL-10915) (UniProt P29965 1-261, limits assumed)
T2 construct: whole, on cells; also called mCD40L; cell membrane CD40L
T2 sequence (looked up): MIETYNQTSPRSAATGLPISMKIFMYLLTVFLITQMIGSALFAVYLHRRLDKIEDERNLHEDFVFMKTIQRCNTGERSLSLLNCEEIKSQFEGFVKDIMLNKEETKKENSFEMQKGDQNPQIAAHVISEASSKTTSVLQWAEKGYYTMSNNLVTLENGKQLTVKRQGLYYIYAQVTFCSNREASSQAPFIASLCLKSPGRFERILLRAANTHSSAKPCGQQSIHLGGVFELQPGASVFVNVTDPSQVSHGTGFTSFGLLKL


Experiments:
[1] = target: T3, recombinant human TNF-α protein (BioLegend) (human, UniProt P01375 77-233); assay: cell-based or functional assay
T3 sequence (P01375 77-233 limits assumed): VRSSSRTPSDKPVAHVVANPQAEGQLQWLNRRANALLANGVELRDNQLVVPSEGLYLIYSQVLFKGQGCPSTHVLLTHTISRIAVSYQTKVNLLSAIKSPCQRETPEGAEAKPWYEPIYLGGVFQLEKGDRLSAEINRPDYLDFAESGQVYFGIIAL

[2] = target: T4, human serum albumin (HSA) (Sigma-Aldrich) (human, UniProt P02768 25-609); assay: BLI (Octet RED), HSA immobilised on AR2G biosensor
From the text: (§1) The purified antibodies were continuously treated in a 1× kinetic buffer at pH 7.4 for two-fold dilution.

[3] = target: T1, recombinant human CD40L (rhCD40L-his); assay: ELISA, CD40L coated, anti-human Fd-HRP
From the text: HRP-conjugated goat anti-human Fd antibodies were used as secondary antibodies.

[4] = target: T1, recombinant human CD40L (rhCD40L-his); assay: BLI (Octet RED), CD40L immobilised on AR2G biosensor
From the text: as §1

[5] = target: T3, recombinant human TNF-α protein …; assay: BLI (Octet RED), TNF-α immobilised on AR2G biosensor
From the text: as §1

[6] = target: T2, cellular membrane CD40L expressed on …; assay: flow cytometry on D1.1 cells, anti-human kappa-FITC
[7] = target: T4, human serum albumin (HSA) …; assay: BLI (Octet RED), average of two runs
Method: (§2) The binding and dissociation kinetics were obtained using Octet QK software. Binding rate constants were calculated such that the observed binding curves are fitted to a 1:1 binding model.

[8] = target: T4, human serum albumin (HSA) …; assay: BLI (Octet RED), HSA immobilised on AR2G biosensor, first run
Method: as §2

[9] = target: T4, human serum albumin (HSA) …; assay: BLI (Octet RED)
Method: as §2

[10] = target: T4, human serum albumin (HSA) …; assay: BLI (Octet RED), second run
Method: as §2

Binder | IC50, HEK-Blue reporter (SEAP), soluble TNF-α 10 ng/ml (FIG. 22B) [1] [nM] | IC50, inhibition of TNF-α mediated cytotoxicity, L929 mouse cells, HSA present (CCK-8) [1] [nM] | Kd [2] [nM] | koff [2] [s⁻¹] | kon [2] [M⁻¹ s⁻¹] | fold lower binding capacity against anti-human CD40L IgG1 (ruplizumab) [3] [fold] | Kd [4] [nM] | koff [4] [s⁻¹] | kon [4] [M⁻¹ s⁻¹] | Kd [5] [nM] | koff [5] [s⁻¹] | kon [5] [M⁻¹ s⁻¹] | binding result [6] | Kd [7] [nM] | koff [7] [s⁻¹] | kon [7] [M⁻¹ s⁻¹] | Kd [8] [nM] | fold of KD against SL335-HSA KD [9] [fold] | Kd [10] [nM]
APB-B1a, (anti-CD40L scFv)2-(anti-HSA Fab)-(anti-TNF-α Fv) (bispecific antibody, also called APB-1a; (scFv)2-Fab-Fv (certolizumab)) heavy: DIVLTQSPATLSVSPGERATISCRASQRVSSSTYSYMHWYQQKPGQPPKLLIKYASNLESGVPARFSGSGSGTDFTLTISSVEPEDFATYYCQHSWEIPPTFGQGTKLEIKRGGGGSGGGGSGGGGSQVQLVQSGAEVVKPGASVKLSCKASGYIFTSYYMYWVKQAPGQGLEWIGEINPSNGDTNFNEKFKSKATLTVDKSASTAYMELSSLRSEDTAVYYCTRSDGRNDMDSWGQGTLVTVSSGGGGSGGGGSGGGGSQVQLVQSGGGPVKPGGSLRLSCAASGFMFRAYSMNWVRQAPGKGLEWVSSISSSGRYIHYADSVKGRFTISRDNAKNSLYLQMNSLRAEDTAVYYCARETVMAGKALDYWGQGTLVTVSSASTKGPSVFPLAPSSKSTSEGTAALGCLVKDYFPEPVTVSWNSGALTSGVHTFPAVLQSSGLYSLSSVVTVPSSSLGTQTYICNVNHKPSNTKVDKKVEPKSSGGGGSGGGGSGGGGSEVQLVESGGGLVQPGGSLRLSCAASGYVFTDYGMNWVRQAPGKGLEWMGWINTYIGEPIYADSVKGRFTFSLDTSKSTAYLQMNSLRAEDTAVYYCARGYRSYAMDYWGQGTLVTVSS light: DIVLTQSPATLSVSPGERATISCRASQRVSSSTYSYMHWYQQKPGQPPKLLIKYASNLESGVPARFSGSGSGTDFTLTISSVEPEDFATYYCQHSWEIPPTFGQGTKLEIKRGGGGSGGGGSGGGGSQVQLVQSGAEVVKPGASVKLSCKASGYIFTSYYMYWVKQAPGQGLEWIGEINPSNGDTNFNEKFKSKATLTVDKSASTAYMELSSLRSEDTAVYYCTRSDGRNDMDSWGQGTLVTVSSGSTSGSGKPGSGEGSTKGDIVLTQSPGTLSLSPGETATLSCRASQSVGSNLAWYQQKPGQAPRLLIYGASTGATGVPARFSGSRSGTDFTLTITSLQPEDFATYYCQQYYSFLAKTFGQGTQLEIKRTVAAPSVFIFPPSDEQLKSGTASVVCLLNNFYPREAKVQWKVDNALQSGNSQESVTEQDSKDSTYSLSNTLTLSKADYEKHKVYACEVTHQGLSSPVTKSFNRGESGGGGSGGGGSGGGGSDIQMTQSPSSLSASVGDRVTITCKASQNVGTNVAWYQQKPGKAPKALIYSASFLYSGVPYRFSGSGSGTDFTLTISSLQPEDFATYYCQQYNIYPLTFGQGTKVEIKR | 3.05 | 5.3 | 0.765 | 0.00042 | 549000 | ~1.5 | 0.192 | 0.000113 | 590000 | 0.164 | 3.82e-05 | 230000 |  |  |  |  |  |  | 
SL335 Fab (anti-HSA Fab) (Fab, V domains shown, also called anti-HSA Fab (SL335)) VH: QVQLVQSGGGPVKPGGSLRLSCAASGFMFRAYSMNWVRQAPGKGLEWVSSISSSGRYIHYADSVKGRFTISRDNAKNSLYLQMNSLRAEDTAVYYCARETVMAGKALDYWGQGTLVTVSS VL: DIVLTQSPGTLSLSPGETATLSCRASQSVGSNLAWYQQKPGQAPRLLIYGASTGATGVPARFSGSRSGTDFTLTITSLQPEDFATYYCQQYYSFLAKTFGQGTQLEIKR |  |  | 0.286 | 0.000288 | 1.01e+06 |  |  |  |  |  |  |  | no binding |  |  |  |  |  | 
APB-A1, recombinant antibody (anti-CD40L scFv)2-anti-HSA Fab (bispecific antibody, also called (anti-hu5c8 scFv)2-SL335; (scFv)2-Fab) heavy: DIVLTQSPATLSVSPGERATISCRASQRVSSSTYSYMHWYQQKPGQPPKLLIKYASNLESGVPARFSGSGSGTDFTLTISSVEPEDFATYYCQHSWEIPPTFGGGTKLEIKRGGGGSGGGGSGGGGSQVQLVQSGAEVVKPGASVKLSCKASGYIFTSYYMYWVKQAPGQGLEWIGEINPSNGDTNFNEKFKSKATLTVDKSASTAYMELSSLRSEDTAVYYCTRSDGRNDMDSWGQGTLVTVSSGGGGSGGGGSGGGGSQVQLVQSGGGPVKPGGSLRLSCAASGFMFRAYSMNWVRQAPGKGLEWVSSISSSGRYIHYADSVKGRFTISRDNAKNSLYLQMNSLRAEDTAVYYCARETVMAGKALDYWGQGTLVTVSSASTKGPSVFPLAPSSKSTSEGTAALGCLVKDYFPEPVTVSWNSGALTSGVHTFPAVLQSSGLYSLSSVVTVPSSSLGTQTYICNVNHKPSNTKVDKKVEPKSS light: DIVLTQSPATLSVSPGERATISCRASQRVSSSTYSYMHWYQQKPGQPPKLLIKYASNLESGVPARFSGSGSGTDFTLTISSVEPEDFATYYCQHSWEIPPTFGGGTKLEIKRGGGGSGGGGSGGGGSQVQLVQSGAEVVKPGASVKLSCKASGYIFTSYYMYWVKQAPGQGLEWIGEINPSNGDTNFNEKFKSKATLTVDKSASTAYMELSSLRSEDTAVYYCTRSDGRNDMDSWGQGTLVTVSSGSTSGSGKPGSGEGSTKGDIVLTQSPGTLSLSPGETATLSCRASQSVGSNLAWYQQKPGQAPRLLIYGASTGATGVPARFSGSRSGTDFTLTITSLQPEDFATYYCQQYYSFLAKTFGQGTQLEIKRTVAAPSVFIFPPSDEQLKSGTASVVCLLNNFYPREAKVQWKVDNALQSGNSQESVTEQDSKDSTYSLSNTLTLSKADYEKHKVYACEVTHQGLSSPVTKSFNRGES |  |  |  |  |  |  |  |  |  |  |  |  |  | 0.688 | 0.00056 | 804000 | 0.748 | ~2.6 | 0.628
